Assay results as given in the DeepSol protein solubility set.

Assay: soluble on expression in E. coli; label from the status in PepcDB or PDB records

Soluble on expression in E. coli, soluble:
MRPVVHVVGGGPGDPELLTVKGARLLGEARFVLYTGSLFPEGALRELAPKAALLDSKGMTLEEIVLALAEEARKGGGVVRLHSGDPGLYGTLLEEKEALEALGVGVEVVPGVTAAFALAARAGLSLTAPGVAQAVAFTRLGVRTPVPEGQDPKSLARKGLTLAVYLSGMHPRRLSRELLEAGLPGDTPVLYGHKVAQPGEEVGLTDLKGLAHLPARDTTVYLVGEALRAKGVRSLLYDPSFKHRYRR, MRRCPLCHSTQTHLLLQDKKRCFYICQTCWLTFADANSHLPPAAEKQRYGRSRIASKQRHLSQFILPLLTQIQQQQNGSLTGLNFGRVLDQTSLETIESAGHTFKQYDPFFAPDHETLKQEYDFICCYRVFEHFQYPIKEWSLLTRLLKPGGWLAISTPLLIDLEGFAKWHYKNNLTHVSFYQRQTFEYLASNSDFELLFAAKDLVLMQKTSLEHHHHHH

Soluble on expression in E. coli, not soluble:
MRNKILSDGAKELSYEIREIVKKADLINKNGQSIVFENIGDPIQKNNVVPQWIRETISNLTLDNKSYSYSPSKGILKTRQFLAELNNKKAGAQITADDILFFNGLGDAIAKVYQFISRSSRVIGPSPAYSTHSSAEAAHASQDPITYKLDPNNHWYPDLDDLYNKVKYNPNIIGILIINPDNPTGMVYPLETLKRIVEIAREFNLFLLSDEIYLNITYNGARAYSLAEVIEDVPGIAMKGISKEFPWPGSRCGWMEYYNRGKDQDFDKFCSALDNAKMIEVCSTTLPQLAIPVIMSDPRYLPYREELNSKIGKRSKIIAGILGQIPELMFNETYGAFYNTIVFKDGVLNDKQTLPIENAANKALVEKWISEPNVDLDKRFVYYLLAAKGICVVPISSFCSDLKGFRVTLLEENEELLEQTFTSIRDAIRLYLKS, MRNVDFSPLYRNAIGFDRLLNLMEANTAKNTSGGYPPYNIEQKDEHNYRITMAVAGFSEDQLDLTQNENMLIVKGERKAEEGKNYVYQGIAERDFERKFQLADYVKVTGASMENGLLHIDLVREIPEAMQPRKIAIGGNNLLESN, MRPQNTNGDFYVDTTCIDCDTCRWMTPEVFHRVDEMSAVYHQPTNETERLAALQALLSCPTSSIGTVEKLEHHHHHH, MRRFKQQLAGRPAAAEIPLKRWLGVASHRCPAGPKRRRHDVMTCPSTQLRLAPITTGLVRRNPRILLSGPHQPTLVRYLEGWPKRWNGSRTFLIQFAQDGKDLARFPSDAFDFAVVQAPEAEDLDLVVRQLIRVARQGLITRRILR, MRRFTAFVLGLCLSLPVLAEQVQRFGDLDVHYNVFNSSFLQPNVASAVGLVRSKAQGVINVVPMEKGKPVEAAVTGSAKDLTGKVIPLEFRRVSEEGAIYNLAQFPISQRETLVFTIKVEAKGEPAQTFSFNKEIFPDE, MRRLVLLLALCFSCSFAQYGLYGSGYNGYGGYGSGYGTGYGMGYGMGYPMNPYMNQVYGYGSNPMMSGGGGMYGAGGCMDLSPQCSVWASTGQCSTNPMMMRQTCAMSCGTCSTGVGALGSMGSYNPFGGYGGMGYPQAGLLDPLAQFIGRSIYETGILRQPTPSSSSKSIGILTKAKSEQLPSR, MRRMVDHDALHRRWLGALVGARGGAAQPDPAPYGENLLRRWSEPQRRYHTVEHLAAVLDRVDLLAEYADDPDVVRLAAWFHDAVYFPDRSENEERSARLAERALPEAGVSGARTAEVARLVRLTVTHDPADDDRDGRVLCDADLAILAAPPKTYAAYAAAVREEYAFVPDDSFRAGRAAVLRQLLDLPRLFRTPYGEREWEERARENLREELARLDDRGTSGAAQLEHHHHHH, MRRPPIVRCLFFLNDTIVLELEKTRVISERSNEEVIVVIRKTVKGTDGREYTFVAKEGTFEKLTGLGTTIRGHIPGTDSPFYGILEDGEEGLRAWIMTFRVVNRVPIDSETEEELVRLFLPLVERRRIDRSILLYVE, MRRQAEAYKAQLAAMVESSDDAIIVKDLNAIITSWNAGAERIFGYQASEITGSSILALIPPERHEEEKGIMSLVKSGNRVDHFETMWWGKGKKPIDVSVTTSAVKDSDGNIVGISQIARDLEHHHHHH
